Data published in the supplement of paper PMC10567573.

B1: MNAT1 (parent)
chain: LAPIHKLEEALYEYQPLQIETYGP

Variants of: B1
Experiment: protein stability index of a GFP-peptide fusion (GPS, HEK-293T) (PSI 1-6); higher = more stable
Settings: c terminus: a fixed tail appended
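Further: lentivirally expressed fusions sorted by FACS into six bins by GFP to DsRed ratio, PSI derived from sequencing read proportions per bin multiplied by bin number.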

Variant | protein stability index
LAPIHKLEEALYEYQPLQIETYLP [G23L] | 2.56
LAPIHKLEEALYEYQPLQIETYHP [G23H] | 2.67
LAPIHKLEEALYEYQPLQIETYQP [G23Q] | 2.02
LAPIHKLEEALYEYQPLQIETYAP [G23A] | 2.16
LAPIHKLEEALYEYQPLQIETYDP [G23D] | 1.3
LAPIHKLEEALYEYQPLQIETYWP [G23W] | 1.14
LAPIHKLEEALYEYQPLQIETYNP [G23N] | 1.85
LAPIHKLEEALYEYQPLQIETYSP [G23S] | 2.1
LAPIHKLEEALYEYQPLQIETYVP [G23V] | 2.79
LAPIHKLEEALYEYQPLQIETYMP [G23M] | 2.17
LAPIHKLEEALYEYQPLQIETYEP [G23E] | 1.86
LAPIHKLEEALYEYQPLQIETYCP [G23C] | 1.44
LAPIHKLEEALYEYQPLQIETYPP [G23P] | 1.67
LAPIHKLEEALYEYQPLQIATYGP [E20A] | 1.32
LAPIHKLEEALYEYQPLQIRTYGP [E20R] | 1.79
LAPIHKLEEALYEYQPLQISTYGP [E20S] | 1.71
LAPIHKLEEALYEYQPLQIYTYGP [E20Y] | 2.74
LAPIHKLEEALYEYQPLQIITYGP [E20I] | 2.71
LAPIHKLEEALYEYQPLQIMTYGP [E20M] | 1.47
LAPIHKLEEALYEYQPLQIPTYGP [E20P] | 2.59
LAPIHKLEEALYEYQPLQIWTYGP [E20W] | 2.88
LAPIHKLEEALYEYQPLQIQTYGP [E20Q] | 2.19
LAPIHKLEEALYEYQPLQIHTYGP [E20H] | 1.6
LAPIHKLEEALYEYQPLQITTYGP [E20T] | 1.28

Variant | protein stability index
LAPIHKLEEALYEYQPLQIDTYGP [E20D] | 1.95
LAPIHKLEEALYEYQPLQIGTYGP [E20G] | 1.98
LAPIHKLEEALYEYQPLQIKTYGP [E20K] | 3.27
LAPIHKLEEALYEYQPWQIETYGP [L17W] | 1.95
LAPIHKLEEALYEYQPNQIETYGP [L17N] | 3.01
LAPIHKLEEALYEYQPTQIETYGP [L17T] | 2.47
LAPIHKLEEALYEYQPDQIETYGP [L17D] | 3.96
LAPIHKLEEALYEYQPQQIETYGP [L17Q] | 2.19
LAPIHKLEEALYEYQPFQIETYGP [L17F] | 1.84
LAPIHKLEEALYEYQPEQIETYGP [L17E] | 3.63
LAPIHKLEEALYEYQPVQIETYGP [L17V] | 3.02
LAPIHKLEEALYEYQPMQIETYGP [L17M] | 2.33
LAPIHKLEEALYEYQPIQIETYGP [L17I] | 2.1
LAPIHKLEEALYEYQPPQIETYGP [L17P] | 2.89
LAPIHKLEEALYEYQPRQIETYGP [L17R] | 3.57
LAPIHKLEEALYEYQPGQIETYGP [L17G] | 3.12
LAPIHKLEEALYEYQPHQIETYGP [L17H] | 3.03
LAPIHKLEEALYEYQPKQIETYGP [L17K] | 3.19
LAPIHKLEEALYEYQPYQIETYGP [L17Y] | 2.59
LAPIHKLEEALYEYQPSQIETYGP [L17S] | 3.45
LAPIHKLEEALYEYQPLPIETYGP [Q18P] | 2.76
LAPIHKLEEALYEYQPLSIETYGP [Q18S] | 1.86
LAPIHKLEEALYEYQPLCIETYGP [Q18C] | 2.21
LAPIHKLEEALYEYQPLGIETYGP [Q18G] | 1.51

Variant | protein stability index
LAPIHKLEEALYEYQPLVIETYGP [Q18V] | 2.25
LAPIHKLEEALYEYQPLIIETYGP [Q18I] | 1.94
LAPIHKLEEALYEYQPLHIETYGP [Q18H] | 1.91
LAPIHKLEEALYEYQPLFIETYGP [Q18F] | 2.9
LAPIHKLEEALYEYQPLEIETYGP [Q18E] | 2.08
LAPIHKLEEALYEYQPLDIETYGP [Q18D] | 3.99
LAPIHKLEEALYEYQPLMIETYGP [Q18M] | 1.85
LAPIHKLEEALYEYQPLYIETYGP [Q18Y] | 1.37
LAPIHKLEEALYEYQPLWIETYGP [Q18W] | 1.96
LAPIHKLEEALYEYQPLNIETYGP [Q18N] | 1.92
LAPIHKLEEALYEYQPLLIETYGP [Q18L] | 1.28
LAPIHKLEEALYEYQPLAIETYGP [Q18A] | 1.84
LAPIHKLEEALYEYQPLQIETCGP [Y22C] | 1.96
LAPIHKLEEALYEYQPLQIETHGP [Y22H] | 1.91
LAPIHKLEEALYEYQPLQIETRGP [Y22R] | 1.73
LAPIHKLEEALYEYQPLQIETPGP [Y22P] | 2.88
LAPIHKLEEALYEYQPLQIETMGP [Y22M] | 2.01
LAPIHKLEEALYEYQPLQIETAGP [Y22A] | 2.18
LAPIHKLEEALYEYQPLQIETFGP [Y22F] | 3.02
LAPIHKLEEALYEYQPLQIETLGP [Y22L] | 2.63
LAPIHKLEEALYEYQPLQIETEGP [Y22E] | 3.19
LAPIHKLEEALYEYQPLQIETSGP [Y22S] | 2.4
LAPIHKLEEALYEYQPLQIETTGP [Y22T] | 2.64
LAPIHKLEEALYEYQPLQIETVGP [Y22V] | 1.76

Variant | protein stability index
LAPIHKLEEALYEYQPLQIETKGP [Y22K] | 2.8
LAPIHKLEEALYEYQPLQIETIGP [Y22I] | 1.81
LAPIHKLEEALYEYQPLQIETNGP [Y22N] | 2.74
LAPIHKLEEALYEYQPLQIETWGP [Y22W] | 2.1
LAPIHKLEEALYEYQPLQIETQGP [Y22Q] | 2.66
LAPIHKLEEALYEYQPLQHETYGP [I19H] | 2.85
LAPIHKLEEALYEYQPLQWETYGP [I19W] | 2.32
LAPIHKLEEALYEYQPLQSETYGP [I19S] | 2.73
LAPIHKLEEALYEYQPLQPETYGP [I19P] | 2.79
LAPIHKLEEALYEYQPLQNETYGP [I19N] | 3.25
LAPIHKLEEALYEYQPLQMETYGP [I19M] | 2.37
LAPIHKLEEALYEYQPLQEETYGP [I19E] | 3.3
LAPIHKLEEALYEYQPLQTETYGP [I19T] | 2.61
LAPIHKLEEALYEYQPLQLETYGP [I19L] | 2.89
LAPIHKLEEALYEYQPLQFETYGP [I19F] | 1.85
LAPIHKLEEALYEYQPLQGETYGP [I19G] | 2.85
LAPIHKLEEALYEYQPLQVETYGP [I19V] | 2.63
LAPIHKLEEALYEYQPLQRETYGP [I19R] | 3.1
LAPIHKLEEALYEYQPLQKETYGP [I19K] | 2.99
LAPIHKLEEALYEYQPLQDETYGP [I19D] | 4.07
LAPIHKLEEALYEYQPLQYETYGP [I19Y] | 1.92
LAPIHKLEEALYEYQPLQQETYGP [I19Q] | 3.62
